This note sets out measurements from paper PMC11525196 (Nature, 2024).

Where a chain is given by its changes, count along the chain named. Like-named read-outs stand apart in the source and are kept apart here.

The target in data set [1] is T1, LYCHOS(N145A)-Flag-NLuc (human, UniProt Q7Z3F1 1-870, N145A).
T1 sequence: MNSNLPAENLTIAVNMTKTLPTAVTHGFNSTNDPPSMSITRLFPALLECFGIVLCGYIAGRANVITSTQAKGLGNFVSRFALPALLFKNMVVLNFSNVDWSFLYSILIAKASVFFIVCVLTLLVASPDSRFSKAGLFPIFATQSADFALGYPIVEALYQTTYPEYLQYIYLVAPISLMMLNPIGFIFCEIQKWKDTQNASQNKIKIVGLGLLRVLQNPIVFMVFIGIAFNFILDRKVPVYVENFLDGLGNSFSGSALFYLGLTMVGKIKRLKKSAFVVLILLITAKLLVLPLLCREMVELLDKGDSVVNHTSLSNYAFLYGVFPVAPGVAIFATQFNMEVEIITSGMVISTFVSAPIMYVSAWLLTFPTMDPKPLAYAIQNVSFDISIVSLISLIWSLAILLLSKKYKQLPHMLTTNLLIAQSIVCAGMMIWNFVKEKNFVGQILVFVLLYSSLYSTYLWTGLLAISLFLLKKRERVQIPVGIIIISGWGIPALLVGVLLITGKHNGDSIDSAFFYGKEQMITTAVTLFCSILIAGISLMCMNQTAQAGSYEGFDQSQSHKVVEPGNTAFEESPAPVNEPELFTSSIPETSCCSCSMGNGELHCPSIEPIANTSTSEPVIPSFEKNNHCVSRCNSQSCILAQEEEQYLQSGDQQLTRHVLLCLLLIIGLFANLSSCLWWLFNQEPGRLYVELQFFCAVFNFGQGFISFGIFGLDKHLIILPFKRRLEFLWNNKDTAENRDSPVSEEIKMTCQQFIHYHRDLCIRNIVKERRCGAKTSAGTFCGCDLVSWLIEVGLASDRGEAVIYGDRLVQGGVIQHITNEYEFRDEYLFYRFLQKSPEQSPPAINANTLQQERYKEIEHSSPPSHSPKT
In words: FRET or BRET. Background: In BRET a luciferase serves as donor, and the signal depends on an acceptor being close.

In data set [2] the target is T2, LYCHOS(F352A/W678R/N145A)-Flag-NLuc (human, UniProt Q7Z3F1 1-870, F352A | W678R | N145A).
T2 sequence: T1 sequence with F352A, W678R
In words: FRET or BRET.

Data set [3] concerns the molecule itself. In words: cryo-EM structure.
Data set [4] deals with the molecule itself. In words: cryo-EM structure. This is another data set of the same source.

B1: HA-cpmCitrine-NPRL2 (natural protein, UniProt Q8WTW4 1-380, looked up)
chain: MGSGCRIECIFFSEFHPTLGPKITYQVPEDFISRELFDTVQVYIITKPELQNKLITVTAMEKKLIGCPVCIEHKKYSRNALLFNLGFVCDAQAKTCALEPIVKKLAGYLTTLELESSFVSMEESKQKLVPIMTILLEELNASGRCTLPIDESNTIHLKVIEQRPDPPVAQEYDVPVFTKDKEDFFNSQWDLTTQQILPYIDGFRHIQKISAEADVELNLVRIAIQNLLYYGVVTLVSILQYSNVYCPTPKVQDLVDDKSLQEACLSYVTKQGHKRASLRDVFQLYCSLSPGTTVRDLIGRHPQQLQHVDERKLIQFGLMKNLIRRLQKYPVRVTREEQSHPARLYTGCHSYDEICCKTGMSYHELDERLENDPNIIICWK
With B1, the BRET50 in data set [1] came out at 0.23 ± 0.06; in data set [2], 0.03 ± 0.01.

B2: LYCHOS (GPR155), wild type, C-terminal Flag tag, expressed in Sf9 cells (natural protein, human)
chain: T1 sequence with A145N
As usually defined, the stoichiometry N is the number of molecules, sites or subunits per partner or assembly. In the case of B2, the “stoichiometry N” value in data set [3] was determined as 2.

B3: LYCHOS (GPR155), wild type, C-terminal Flag tag, expressed in Expi293F cells (natural protein, human)
chain: T1 sequence with A145N
Take B3: the “stoichiometry N” value in data set [4] was 2.
